Source: patent US20240360228A1 (BIOLEGEND, published 2024)

Key:
[1] = target: T1, human CCR8 (human, UniProt P51685 1-355); assay: flow blocking, PBMC CCR8+CD3+; competitor PE-AB7
T1 construct: Native CCR8 on human PBMC (CCR8+ CD3+ or CCR8+ CD4+ lymphocytes); also called chemokine (C-C motif) receptor 8
Protocol: (§1) For blocking studies, 100 μL of the cell suspension were incubated with 10 μg purified isotype control, AB1, AB2, AB3, AB4, AB5, AB8, AB9, AB10, AB11, AB12, AB13, AB14, AB15, and Commercial ABI antibodies, or isotype control, as blocking agents.
(§2) After incubation with the blocking agent, the cells were incubated with 0.25 μg of the indicated PE-conjugated antibody plus anti-human CD4 APC or anti-human CD3 for another 15 minutes in the dark and then washed 2 times with Cell Staining Buffer, and acquired in a FACSCanto II flow cytometer (BD Biosciences); the data was analyzed using FCS Express (De Novo Software); MFI correspond to the CCR8+ CD4+ lymphocytes or CCR8+ CD3+ lymphocytes.
(§3) Percentage original MFI was calculated by dividing the MFI of samples blocked with AB1, AB2, AB3, AB4, AB5, AB6, AB7, AB8, AB9, AB10, AB11, AB12, AB13, AB14, AB15, and Commercial ABI antibodies, by the MFI of samples blocked with the corresponding isotype control. This value was subtracted from 100 to get a blocking percentage. The formula is shown below: […]

[2] = target: T1, human CCR8; assay: flow blocking, PBMC CCR8+CD3+; competitor PE-AB13
Protocol: as §1, §2, §3

[3] = target: T1, human CCR8; assay: flow blocking, PBMC CCR8+CD3+; competitor PE-L263G8
Protocol: as §1, §2, §3

[4] = target: T1, human CCR8; assay: flow blocking, PBMC CCR8+CD4+; competitor PE-AB15
Method in brief: (§4)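 Read-out: PE MFI of CCR8+ CD4+ or CD3+ lymphocytes by flow cytometry. Cell suspension was first blocked with 10 μg unlabeled antibody or isotype, then given 0.25 μg PE-labelled competitor with anti-CD4/CD3 for 15 min, dark, washed twice. Percent blocking is 100 minus MFI ratio versus isotype.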

[5] = target: T1, human CCR8; assay: flow blocking, PBMC CCR8+CD3+; competitor PE-AB5
Protocol: as §1, §2, §3

[6] = target: T1, human CCR8; assay: flow blocking, PBMC CCR8+CD3+; competitor PE-AB12
Protocol: as §1, §2, §3

[7] = target: T1, human CCR8; assay: flow blocking, PBMC CCR8+CD3+; competitor PE-433H
Protocol: as §1, §2, §3

[8] = target: T1, human CCR8; assay: flow blocking, PBMC CCR8+CD3+; competitor PE-AB11
Protocol: as §1, §2, §3

[9] = target: T1, human CCR8; assay: flow blocking, PBMC CCR8+CD4+; competitor PE-AB14
Method in brief: (§5)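 Human PBMC (100 μL suspension) were pre-blocked with 10 μg of each unlabelled anti-CCR8 antibody or isotype control. Cells were then stained 15 min in the dark with 0.25 μg of the PE-conjugated competitor antibody plus anti-CD4 or anti-CD3. Read-out by flow cytometry as MFI on CCR8+CD4+ or CCR8+CD3+ lymphocytes.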

[10] = target: T1, human CCR8; assay: flow blocking, PBMC CCR8+CD4+; competitor PE-AB12
Method in brief: as §4

[11] = target: T1, human CCR8; assay: flow blocking, PBMC CCR8+CD3+; competitor PE-AB6
Protocol: as §1, §2, §3

[12] = target: T1, human CCR8; assay: flow blocking, PBMC CCR8+CD4+; competitor PE-AB13
Method in brief: as §5

[13] = target: T1, human CCR8; assay: flow blocking, PBMC CCR8+CD3+; competitor PE-AB14
Protocol: as §1, §2, §3

[14] = target: T1, human CCR8; assay: flow blocking, PBMC CCR8+CD4+; competitor PE-AB11
Method in brief: as §4

[15] = target: T1, human CCR8; assay: flow blocking, PBMC CCR8+CD4+; competitor PE-AB4
Method in brief: as §4

[16] = target: T1, human CCR8; assay: flow blocking, PBMC CCR8+CD4+; competitor PE-AB5
Method in brief: as §4

[17] = target: T1, human CCR8; assay: flow blocking, PBMC CCR8+CD3+; competitor PE-AB8
Protocol: as §1, §2, §3

[18] = target: T1, human CCR8; assay: flow blocking, PBMC CCR8+CD4+; competitor PE-AB1
Method in brief: as §4

[19] = target: T1, human CCR8; assay: flow blocking, PBMC CCR8+CD4+; competitor PE-AB10
Method in brief: as §4

[20] = target: T1, human CCR8; assay: flow blocking, PBMC CCR8+CD4+; competitor PE-433H
Method in brief: as §5

[21] = target: T1, human CCR8; assay: flow blocking, PBMC CCR8+CD4+; competitor PE-AB3
Method in brief: as §4

[22] = target: T1, human CCR8; assay: flow blocking, PBMC CCR8+CD3+; competitor PE-AB10
Protocol: as §1, §2, §3

[23] = target: T1, human CCR8; assay: flow blocking, PBMC CCR8+CD4+; competitor PE-AB6
[24] = target: T1, human CCR8; assay: flow blocking, PBMC CCR8+CD4+; competitor PE-AB2
Method in brief: as §4

[25] = target: T1, human CCR8; assay: flow blocking, PBMC CCR8+CD3+; competitor PE-AB15
Protocol: as §1, §2, §3

[26] = target: human chemokine (C-C motif) receptor 8 (CCR8) (human, UniProt P51685 1-355); assay: cell-based or functional assay
Chain of human chemokine (C-C motif) receptor 8 (CCR8) (P51685 whole entry): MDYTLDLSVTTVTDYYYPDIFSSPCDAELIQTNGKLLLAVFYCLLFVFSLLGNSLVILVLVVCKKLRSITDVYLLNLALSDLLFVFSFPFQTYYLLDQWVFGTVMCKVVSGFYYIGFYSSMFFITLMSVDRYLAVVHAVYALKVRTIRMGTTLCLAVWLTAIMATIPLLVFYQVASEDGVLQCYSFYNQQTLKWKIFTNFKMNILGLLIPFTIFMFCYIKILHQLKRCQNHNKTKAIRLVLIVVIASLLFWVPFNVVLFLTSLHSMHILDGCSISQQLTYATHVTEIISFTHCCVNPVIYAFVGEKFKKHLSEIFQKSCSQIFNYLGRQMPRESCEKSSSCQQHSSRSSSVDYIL

T1 sequence (P51685 whole entry): as above

B1: AB11 (antibody, V domains shown)
VH: EVQLVESGGGLVQPKGSLKLSCAASGFAFNTYAMNWVRQAPGKGLEWIARLRSKSNFYATYYADSVKDRFTISRDDSQSMLYLQMNNLKTEDTAVYYCVRGRELGPSYAMDYWGQGTSVTVSS
VL: DIVMTQAAPSVPVTPGESVSISCRSSKSLLHSNGNTYLYWFLQRPGQSPQLLIYRMSNLASGVPDRFSGSGSGTAFTLRISRVEAEDVGVYYCMQHLEYPYTFGGGTKLEIK
notes: Hybridoma monoclonal; also called antibody 11; clone 11
[1]
  % Blocking: 13.1%
  MFI: 1020
[2]
  % Blocking: 34.6%
  MFI: 579
[3]
  % Blocking: 36.6%
  MFI: 427
[4]
  % Blocking: 93.8%
  % Positive cells: 0.08%
[5]
  % Blocking: -2.94%
  MFI: 1020
[6]
  % Blocking: 48%
  MFI: 531
[7]
  % Blocking: 43.3%
  MFI: 503
[8]
  % Blocking: 42.7%
  MFI: 532
[9]
  % Blocking: 99.2%
  % Positive cells: 0.01%
[10]
  % Blocking: 98.3%
  % Positive cells: 0.03%
[11]
  % Blocking: -8.93%
  MFI: 1010
[12]
  % Blocking: 96.5%
  % Positive cells: 0.07%
[13]
  % Blocking: 41.4%
  MFI: 506
[14]
  % Blocking: 96.9%
  % Positive cells: 0.06%
[15]
  % Blocking: -27%
  % Positive cells: 2.26%
[16]
  % Blocking: -27.7%
  % Positive cells: 2.58%
[17]
  % Blocking: 17.8%
  MFI: 977
[18]
  % Blocking: -31.6%
  % Positive cells: 2.04%
[19]
  % Blocking: -2.7%
  % Positive cells: 1.52%
[20]
  % Blocking: 38.6%
  % Positive cells: 1.08%
[21]
  % Blocking: -26.3%
  % Positive cells: 2.16%
[22]
  % Blocking: 34.4%
  MFI: 522
[23]
  % Blocking: -5.45%
  % Positive cells: 2.13%
[24]
  % Blocking: -22.6%
  % Positive cells: 2.01%
[25]
  % Blocking: 52%
  MFI: 412

B2: AB13 (antibody, V domains shown)
VH: EVQLVETGGGLVQPKGSLKLSCAASGFTFNAYAMNWVRQAPGKGLEWVARIRTKSNNYATYYADSVKDRFTISRDDSQTMLYLQMNNLKTEDTAMYYCVRDRATVTTGRAMDYWGQGTSVTVSS
VL: DIVMTQAAPSLPVTPGESVSISCRSSKSLLHSNGNTYLYWFLQRAGQSPQLLIYRMSNLASGVPDRFSGSGSGTAFTLRISRVEAEDVGVYYCMQHLEYPFTFGSGTKLEIK
notes: Hybridoma monoclonal; also called antibody 13; clone 13
[1]
  % Blocking: 46.1%
  MFI: 630
[2]
  % Blocking: 24.6%
  MFI: 668
[3]
  % Blocking: 11.8%
  MFI: 594
[4]
  % Blocking: -34.9%
  % Positive cells: 1.74%
[5]
  % Blocking: -14.7%
  MFI: 1130
[6]
  % Blocking: 21.8%
  MFI: 800
[7]
  % Blocking: 8.18%
  MFI: 814
[8]
  % Blocking: 5.33%
  MFI: 878
[9]
  % Blocking: 99.2%
  % Positive cells: 0.01%
[10]
  % Blocking: 99.4%
  % Positive cells: 0.01%
[11]
  % Blocking: -17.2%
  MFI: 1080
[12]
  % Blocking: 95.5%
  % Positive cells: 0.09%
[13]
  % Blocking: 30.8%
  MFI: 598
[14]
  % Blocking: 98%
  % Positive cells: 0.04%
[15]
  % Blocking: -18.5%
  % Positive cells: 2.11%
[16]
  % Blocking: -7.92%
  % Positive cells: 2.18%
[17]
  % Blocking: 44.1%
  MFI: 664
[18]
  % Blocking: -36.8%
  % Positive cells: 2.12%
[19]
  % Blocking: 96%
  % Positive cells: 0.06%
[20]
  % Blocking: 34.7%
  % Positive cells: 1.15%
[21]
  % Blocking: -19.3%
  % Positive cells: 2.04%
[22]
  % Blocking: 8.91%
  MFI: 726
[23]
  % Blocking: 1.49%
  % Positive cells: 1.99%
[24]
  % Blocking: -33.5%
  % Positive cells: 2.19%
[25]
  % Blocking: 30%
  MFI: 601

B3: AB6 (antibody, V domains shown)
VH: QVQLKESGPGLVQPSQTLSLTCTVSGFSLTSYHVSWVRQPPGKGLEWMGVIWTGGSTTYNSLLKSRLSISRDISKSQVFLKMNSLQTEDTATYYCARGGTVVKGGFAYWGQGTLVTVSS
VL: DIQMTQSPASLSASLEEIVTITCQASQDIGNRLSWYQQKPGKSPQLLIYGATSLADGVPSRFSGSRSGTQYSLKISRLQVEDIGIYYCLQAYSTPLTFGSGTKLEIK
[26]
  % hCCR8-Ba/F3 - THP-1 complexes: 1.88%

B4: AB7 (antibody, V domains shown)
VH: AVQLVESGGGLVQPKESLKISCAASGFTFSYAAMYWVRQTPGKGLEWVARIRTKPNNYATYYADSVKGRFTISRDDSKSMVYLQMDNLKSEDTAMYYCNIMGITRGYYFDYWGQGVMVTVSS
VL: DIQMTQSPSFLSASVGDRVTINCKASQNINRYLNWYQQQLGEAPKLLIYNANNLQTGIPSRFSGSRSGTDFTLTISSLQPEDVATYFCLQHNSWPWTFGGGTKLELK
[26]
  % hCCR8-Ba/F3 - THP-1 complexes: 2.2%
